One experiment addresses T1, GIPR V99I (human) (UniProt P48546).
T1 sequence: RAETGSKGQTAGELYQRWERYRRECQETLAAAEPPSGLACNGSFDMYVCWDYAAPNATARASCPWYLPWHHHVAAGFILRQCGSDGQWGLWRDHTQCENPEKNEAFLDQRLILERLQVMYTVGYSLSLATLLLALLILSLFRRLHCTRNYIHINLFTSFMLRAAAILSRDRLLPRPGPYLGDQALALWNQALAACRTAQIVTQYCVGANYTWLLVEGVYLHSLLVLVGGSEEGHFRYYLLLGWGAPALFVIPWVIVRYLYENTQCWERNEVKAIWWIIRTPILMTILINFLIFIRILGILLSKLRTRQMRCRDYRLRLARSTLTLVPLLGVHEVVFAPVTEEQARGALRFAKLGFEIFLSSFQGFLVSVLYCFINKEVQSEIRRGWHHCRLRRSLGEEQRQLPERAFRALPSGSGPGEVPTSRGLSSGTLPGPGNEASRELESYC

The target of the next experiment is T2, GIPR A150T (human) (UniProt P48546).
T2 sequence: T1 sequence with I78V, A129T

In another experiment the target is T3, GIPR I299V (human) (UniProt P48546).
T3 sequence: T1 sequence with I78V, I278V

For a further experiment, the target named is T4, GIPR E288G (human) (UniProt P48546).
T4 sequence: T1 sequence with I78V, E267G

The target in another experiment is GIPR R12Q (human) (UniProt P48546).
In another experiment the target is T5, GIPR E461* (human) (UniProt P48546).
T5 sequence: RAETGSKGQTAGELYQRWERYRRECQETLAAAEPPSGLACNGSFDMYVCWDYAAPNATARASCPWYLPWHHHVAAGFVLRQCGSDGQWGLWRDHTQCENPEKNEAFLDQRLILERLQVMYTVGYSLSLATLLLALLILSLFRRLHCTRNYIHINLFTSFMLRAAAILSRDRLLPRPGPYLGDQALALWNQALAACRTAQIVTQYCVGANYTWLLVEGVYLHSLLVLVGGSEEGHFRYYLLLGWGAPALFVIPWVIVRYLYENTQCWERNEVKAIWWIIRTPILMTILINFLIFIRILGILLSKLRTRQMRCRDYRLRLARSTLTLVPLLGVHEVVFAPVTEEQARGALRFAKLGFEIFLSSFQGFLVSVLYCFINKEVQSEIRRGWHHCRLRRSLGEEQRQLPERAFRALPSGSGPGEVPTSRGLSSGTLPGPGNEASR

A further experiment deals with T6, GIPR H166Y (human) (UniProt P48546).
T6 sequence: T1 sequence with I78V, H145Y

1 substance from PMC11272584 (Nature Metabolism, 2024) can be followed below.

Numbering of substitutions follows the chain as printed.

With “β-arrestin 2 (Rluc8-Arrestin-3-Sp1) (from UniProt P32121 1-409) (natural protein)”, the β-arrestin 2 recruitment (BRET) on stimulation with GIP(1-42): logEC50 (Arrestin) (log M (inferred)) is -8.93 with GIPR V99I (human); -8.92 with GIPR A150T (human); -9.01 with GIPR I299V (human); -9.15 with GIPR E288G (human); -8.72 with GIPR R12Q (human); -9.17 in the experiment with GIPR E461* (human). The β-arrestin 2 recruitment (BRET) on stimulation with GIP(1-42): logEC50 (Arrestin) (log M (inferred)) in the experiment with GIPR H166Y (human) is -9.22.
